Test [1] deals with PD1 (Homo sapiens), Q15116. In words: ELISA PD1/PDL1 blocking. Particulars: modification not given. Background: An ELISA detects its analyte on a solid surface through an enzyme-linked reagent.
The target in test [2] is PD1 (Homo sapiens), Q15116. In words: competitive binding kinetics. Particulars: modification not given.

The values that follow come from paper PMC10029098.

Broadly, the IC50 is the concentration that inhibits the measured activity by half. A lower IC50 goes with greater potency. As usually defined, the Ki is a dissociation constant, usually derived from enzyme kinetics or from competition with a known ligand. Lower therefore signals tighter binding.

Sequence of PD1 (Homo sapiens), Q15116 (Q15116 25-170): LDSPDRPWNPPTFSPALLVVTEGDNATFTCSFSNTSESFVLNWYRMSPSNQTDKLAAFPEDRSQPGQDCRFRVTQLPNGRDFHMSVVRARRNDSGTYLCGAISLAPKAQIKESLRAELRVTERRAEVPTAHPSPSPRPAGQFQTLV

In test [1], RWCARRDYRFDMGFDYWGWE [peptide 1c] gave a concentration for half-maximal inhibition (IC50) of 3700 nM.
For the molecule RWVARRDYRFDMGFDYWVWE [hairpin 1e], the concentration for half-maximal inhibition (IC50) in test [1] was 290 nM. Besides, the Ki in test [2] came out at 41 nM.
